According to patent publication US20240277845A1 (XYPHOS BIOSCIENCES, published 2024):

B5: Fc-iNKG2D.YA (Fc fusion, human, not shown: a dimerising Fc or GST)
chain: IEGRFLNSLFNQEVQIPLTESYCGPCPKNWICYKNNCYQFFDESKNWYESQASCMSQNASLLKVYSKEDQDLLKLVKSAHWMGLVHIPTNGSWQWEDGSILSPNLLTIIEMQKGDCALYASSFKGYIENCSTPNTYICMQRTV
notes: range 78-216; also called Y152A mutant

Assays:
Fc-iNKG2D.YA [1] = biological target: B5; experiment: Octet BLI; Fc-iNKG2D.YA captured on AHC tips, dilution series of His-tagged monomeric ligand
Fc-iNKG2D.YA [2] = biological target: B5; experiment: Octet BLI, Fc-iNKG2D.YA on AHC tips, His-tagged monomer (FIG. 4C)
Fc-wtNKG2D [3] = biological target: T1, Fc-wtNKG2D (human, UniProt P26718 78-216); experiment: Octet BLI; Fc-wtNKG2D captured on AHC tips, dilution series of His-tagged monomeric ligand
T1 construct: range 78-216; NKG2D ectodomain fused to the C-terminus of human IgG1 Fc; dimeric secreted protein; biotinylated in some ELISAs; also called wild-type NKG2D; Fc-NKG2D
T1 sequence: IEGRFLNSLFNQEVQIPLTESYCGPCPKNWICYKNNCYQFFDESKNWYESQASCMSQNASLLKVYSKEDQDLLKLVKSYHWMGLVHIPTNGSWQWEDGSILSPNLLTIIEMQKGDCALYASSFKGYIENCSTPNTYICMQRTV

Fc-iNKG2D.YA [4] = biological target: B5; experiment: ELISA; wells coated with Fc-iNKG2D.YA, Rituximab.LC-U2S3 titrated
Fc-iNKG2D.YA [5] = biological target: B5; experiment: ELISA; 'iNKG2D.YA capture; CD20(Rit)-MicAb titration; anti-kappa-HRP detection'
mouse NKG2D = biological target: T2, mouse NKG2D (mouse, UniProt O54709 94-232, limits assumed); experiment: ELISA on mouse NKG2D, MicAbody titrated; y axis 'Mouse NKG2D binding' (absorbance)
T2 construct: also called mouse wild-type NKG2D
T2 sequence (looked up): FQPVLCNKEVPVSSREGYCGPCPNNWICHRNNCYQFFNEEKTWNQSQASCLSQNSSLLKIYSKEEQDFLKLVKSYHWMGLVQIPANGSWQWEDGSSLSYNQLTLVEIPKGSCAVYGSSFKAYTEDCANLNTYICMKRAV

Fc-iNKG2D.YA [6] = biological target: B5; experiment: Octet BLI; Fc-iNKG2D.YA captured on AHC tips, two-fold dilution series of MicAbody from 50 nM
Description: (§1) YA were captured with anti-human IgG Fc capture (AHC) biosensor tips then associated with a two-fold dilution series of MicAbody starting at 50 nM. The y-axes corresponding to binding responses were set to the same scale for all sensograms.

Fc-wtNKG2D [7] = biological target: T1, Fc-wtNKG2D; experiment: ELISA on wild-type NKG2D (FIG. 19); ELISA on wild-type NKG2D (FIG. 19), Rituximab light-chain fusion
Fc-wtNKG2D [8] = biological target: T1, Fc-wtNKG2D; experiment: Octet BLI; Fc-wtNKG2D captured on AHC tips, two-fold dilution series from 50 nM
Description: as §1

Fc-iNKG2D.YA [9] = biological target: B5; experiment: Octet BLI; Fc-iNKG2D.YA captured on AHC tips, two-fold dilution series from 50 nM
Description: as §1

ULBP2-Fc = biological target: T3, ULBP2-Fc (UniProt Q9BZM5 26-217); experiment: ELISA; ligand-Fc coated, biotinylated Fc-iNKG2D.YA titrated, streptavidin-HRP; x axis printed as 'nM ligand-Fc'
T3 construct: Bought reagent; also called Ligand-Fc fusion (R&D Systems); not shown: Fc of the bought fusion, not described
T3 sequence (looked up): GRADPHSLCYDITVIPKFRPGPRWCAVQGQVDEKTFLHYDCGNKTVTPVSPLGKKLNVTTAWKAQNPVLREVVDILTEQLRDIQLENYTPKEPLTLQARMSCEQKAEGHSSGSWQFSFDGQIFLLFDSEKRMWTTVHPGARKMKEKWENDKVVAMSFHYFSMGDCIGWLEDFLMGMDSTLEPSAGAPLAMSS

MICA-Fc = biological target: T4, MICA-Fc (UniProt Q29983 24-308); experiment: as above
T4 construct: Bought reagent; also called Ligand-Fc fusion (R&D Systems); not shown: Fc of the bought fusion, not described
T4 sequence (Q29983 24-308 limits assumed): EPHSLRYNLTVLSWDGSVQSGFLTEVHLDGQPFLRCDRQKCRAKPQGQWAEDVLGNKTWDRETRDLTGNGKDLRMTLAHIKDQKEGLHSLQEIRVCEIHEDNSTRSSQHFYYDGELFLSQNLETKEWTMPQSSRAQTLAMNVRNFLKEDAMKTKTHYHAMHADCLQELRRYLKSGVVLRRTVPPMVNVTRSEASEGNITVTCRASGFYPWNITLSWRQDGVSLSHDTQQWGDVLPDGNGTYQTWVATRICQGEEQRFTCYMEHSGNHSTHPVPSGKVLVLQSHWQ

ULBP1-Fc = biological target: T5, ULBP1-Fc (UniProt Q9BZM6 26-216); experiment: as above
T5 construct: Bought reagent; also called Ligand-Fc fusion (R&D Systems); not shown: Fc of the bought fusion, not described
T5 sequence (looked up): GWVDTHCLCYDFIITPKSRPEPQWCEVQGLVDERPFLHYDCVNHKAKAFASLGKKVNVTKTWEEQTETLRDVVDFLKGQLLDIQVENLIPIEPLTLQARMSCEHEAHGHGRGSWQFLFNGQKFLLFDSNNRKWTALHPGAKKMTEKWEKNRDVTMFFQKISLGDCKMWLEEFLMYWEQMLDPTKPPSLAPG

ULBP3-Fc = biological target: T6, ULBP3-Fc (UniProt Q9BZM4 30-217); experiment: as above
T6 construct: Bought reagent; also called Ligand-Fc fusion (R&D Systems); not shown: Fc of the bought fusion, not described
T6 sequence (looked up): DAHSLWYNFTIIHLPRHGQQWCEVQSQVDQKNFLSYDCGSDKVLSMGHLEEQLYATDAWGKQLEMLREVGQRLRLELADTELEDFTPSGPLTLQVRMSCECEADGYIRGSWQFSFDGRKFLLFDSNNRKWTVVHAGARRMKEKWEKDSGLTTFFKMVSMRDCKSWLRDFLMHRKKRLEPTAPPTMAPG

ULBP4-Fc = biological target: T7, ULBP4-Fc (UniProt Q8TD07 31-225, limits assumed); experiment: as above
T7 construct: Bought reagent; also called Ligand-Fc fusion (R&D Systems); not shown: Fc of the bought fusion, not described
T7 sequence (looked up): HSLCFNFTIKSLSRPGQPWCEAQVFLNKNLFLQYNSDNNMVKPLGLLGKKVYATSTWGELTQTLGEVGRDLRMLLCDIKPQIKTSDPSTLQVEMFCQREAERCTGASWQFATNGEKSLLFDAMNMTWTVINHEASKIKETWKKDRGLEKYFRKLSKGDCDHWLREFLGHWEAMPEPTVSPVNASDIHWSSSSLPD

MICB-Fc = biological target: T8, MICB-Fc (UniProt Q29980 23-298, limits assumed); experiment: as above
T8 construct: Bought reagent; also called Ligand-Fc fusion (R&D Systems); not shown: Fc of the bought fusion, not described
T8 sequence (looked up): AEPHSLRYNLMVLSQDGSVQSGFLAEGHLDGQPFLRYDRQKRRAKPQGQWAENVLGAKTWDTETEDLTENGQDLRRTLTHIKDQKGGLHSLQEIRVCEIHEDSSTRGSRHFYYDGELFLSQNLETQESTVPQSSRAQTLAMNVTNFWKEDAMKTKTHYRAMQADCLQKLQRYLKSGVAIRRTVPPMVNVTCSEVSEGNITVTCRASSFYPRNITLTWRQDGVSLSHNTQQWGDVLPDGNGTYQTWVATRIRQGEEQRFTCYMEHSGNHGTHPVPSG

B1: His-tagged monomeric U2S3 (ligand)
chain: EPHSLSYDITVIPKFRPGPRWCAVQGQVDEKTFLHYDCGNKTVTPVSPLGKKLNVTTAWKAQNPVLREVVDILTEQLWDIQLENYTPKEPLTLQARMSCEQKAEGHSSGSWQFSFDGQIFLLFDSEKRMWTTVHPGARKMKEKWENDKVVATKLYLWSMGDCIGWLEDFLMGMDSTLEPHHHHHH
notes: also called orthogonal U2S3 ligand
- Kd (Fc-iNKG2D.YA [1]): 28 nM
- fold higher affinity than wild-type ULBP2 to wtNKG2D (Fc-iNKG2D.YA [2]): 10 fold
- binding result (Fc-wtNKG2D [3]): no binding (tested: not printed on the sheet)

B2: Rituximab.LC-U2S3 MicAbody (bispecific antibody, human IgG1, kappa, N297A)
heavy: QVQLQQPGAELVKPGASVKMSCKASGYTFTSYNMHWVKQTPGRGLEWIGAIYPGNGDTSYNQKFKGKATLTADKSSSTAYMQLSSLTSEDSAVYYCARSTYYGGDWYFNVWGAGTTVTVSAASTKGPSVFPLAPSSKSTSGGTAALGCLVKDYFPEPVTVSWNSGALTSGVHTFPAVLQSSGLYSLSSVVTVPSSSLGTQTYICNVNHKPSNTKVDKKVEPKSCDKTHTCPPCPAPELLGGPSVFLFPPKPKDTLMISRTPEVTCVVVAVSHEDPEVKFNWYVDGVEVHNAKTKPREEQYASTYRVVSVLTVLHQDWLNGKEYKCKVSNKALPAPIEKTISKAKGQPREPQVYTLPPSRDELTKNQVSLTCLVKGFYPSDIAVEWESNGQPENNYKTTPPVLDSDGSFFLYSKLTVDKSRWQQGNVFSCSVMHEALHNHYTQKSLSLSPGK
light: QIVLSQSPAILSASPGEKVTMTCRASSSVSYIHWFQQKPGSSPKPWIYATSNLASGVPVRFSGSGSGTSYSLTISRVEAEDAATYYCQQWTSNPPTFGGGTKLEIKRTVAAPSVFIFPPSDEQLKSGTASVVCLLNNFYPREAKVQWKVDNALQSGNSQESVTEQDSKDSTYSLSSTLTLSKADYEKHKVYACEVTHQGLSSPVTKSFNRGECAPTSSSGGGGSEPHSLSYDITVIPKFRPGPRWCAVQGQVDEKTFLHYDCGNKTVTPVSPLGKKLNVTTAWKAQNPVLREVVDILTEQLWDIQLENYTPKEPLTLQARMSCEQKAEGHSSGSWQFSFDGQIFLLFDSEKRMWTTVHPGARKMKEKWENDKVVATKLYLWSMGDCIGWLEDFLMGMDSTLEPS
notes: also called Rit-S3; Rit.S3
- EC50 (read off the curve) (Fc-iNKG2D.YA [4]): ~0.03 nM
- EC50 (read off the curve) (Fc-iNKG2D.YA [5]): ~0.06 nM
- EC50 (read off the curve) (mouse NKG2D): ~40 nM
- Kd (Fc-iNKG2D.YA [6]): 0.01 nM

B3: Rituximab light-chain fusion of U2S3 (NQ) (bispecific antibody)
heavy: QVQLQQPGAELVKPGASVKMSCKASGYTFTSYNMHWVKQTPGRGLEWIGAIYPGNGDTSYNQKFKGKATLTADKSSSTAYMQLSSLTSEDSAVYYCARSTYYGGDWYFNVWGAGTTVTVSAA
light: QIVLSQSPAILSASPGEKVTMTCRASSSVSYIHWFQQKPGSSPKPWIYATSNLASGVPVRFSGSGSGTSYSLTISRVEAEDAATYYCQQWTSNPPTFGGGTKLEIKRTVAAPSVFIFPPSDEQLKSGTASVVCLLNNFYPREAKVQWKVDNALQSGNSQESVTEQDSKDSTYSLSSTLTLSKADYEKHKVYACEVTHQGLSSPVTKSFNRGECAPTSSSGGGGSEPHSLSYDITVIPKFRPGPRWCAVQGQVDEKTFLHYDCGQKTVTPVSPLGKKLQVTTAWKAQNPVLREVVDILTEQLWDIQLENYTPKEPLTLQARMSCEQKAEGHSSGSWQFSFDGQIFLLFDSEKRMWTTVHPGARKMKEKWENDKVVATKLYLWSMGDCIGWLEDFLMGMDSTLEPS
notes: also called Rit.NQ; Rit.S3.NQ; not shown: human IgG1 heavy-chain constant region, ADCC-deficient
- binding result (Fc-wtNKG2D [7]): no binding
- EC50 (read off the curve) (Fc-iNKG2D.YA [5]): ~0.04 nM

B4: Rituximab antibody (ADCC-deficient) (antibody, V domains shown)
VH: QVQLQQPGAELVKPGASVKMSCKASGYTFTSYNMHWVKQTPGRGLEWIGAIYPGNGDTSYNQKFKGKATLTADKSSSTAYMQLSSLTSEDSAVYYCARSTYYGGDWYFNVWGAGTTVTVSA
VL: QIVLSQSPAILSASPGEKVTMTCRASSSVSYIHWFQQKPGSSPKPWIYATSNLASGVPVRFSGSGSGTSYSLTISRVEAEDAATYYCQQWTSNPPTFGGGTKLEIK
notes: also called parent rituximab antibody; Rit.P; not shown: human IgG1 heavy-chain constant region, ADCC-deficient
- binding result (Fc-wtNKG2D [8]): no binding (tested: 50 nM)
- binding result (Fc-iNKG2D.YA [9]): no binding (tested: 50 nM)

Binder: B5
- binding result (ULBP2-Fc): no binding (tested: about 2000 nM)
- binding result (MICA-Fc): no binding (tested: about 2000 nM)
- binding result (ULBP1-Fc): no binding (tested: about 2000 nM)
- binding result (ULBP3-Fc): no binding (tested: about 2000 nM)
- binding result (ULBP4-Fc): no binding (tested: about 2000 nM)
- binding result (MICB-Fc): no binding (tested: about 2000 nM)
